Data set [1] can be described thus: folding stability dG unfold from trypsin proteolysis; higher = more stable. Put shortly: (§1)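 Sequencing followed digestion of designed mini-proteins with trypsin and chymotrypsin, each at 11 concentrations in threefold dilutions together with a no-protease condition. The mini-proteins were under 80 residues, had no cysteine, sat in a PA-tagged cDNA display construct, and were kept only if AlphaFold2 dimer inter-PAE was above 15. From the counts, Bayesian fitting gave K50, and unfolding free energy was derived against a sequence-predicted unfolded-state K50 and a shared folded-state K50, per protease or combined.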

A short description of data set [2]: folding stability dG unfold from chymotrypsin proteolysis; higher = more stable. Put shortly:
as §1

Data set [3] in a line: folding stability dG unfold (combined trypsin and chymotrypsin); higher = more stable. Put shortly: as §1

± gives the half width of the 95% confidence interval.

Consider “SMVVIEFETKKPKEQAEKAVEKAKKEIPELEEVLEIEVEEFPDFLKVKIVLKGGKITPEDLEKLKEFLEKSA [r9_195_TrMRF]”, for which the “folding stability dG unfold” value in data set [1] worked out at 2.67 ± 0.27 kcal/mol; in data set [2] it was 2.4 ± 0.071 kcal/mol; in data set [3] it was 2.63 ± 0.27 kcal/mol.
For “SMVVVKVTASSPEEAEALAKEAEEKLKEEIEKKIKELKKKGINPKELNLNIKIEIETLSYDPANPGKNTPSA [r9_961_JUSTAS]”, the “folding stability dG unfold” value in data set [1] was 0.484 ± 0.039 kcal/mol; in data set [2], 0.998 ± 0.066 kcal/mol; in data set [3], 0.827 ± 0.13 kcal/mol.
As for “SMYDIVITVPSPEDVKALEEAFKELGVEEIEVERLPEERYRIVIKTKGSVEEIVEAIRKIAEENGLEIEPSA [r9_1003_TrMRF]”, the “folding stability dG unfold” value is 3.36 ± 0.18 kcal/mol in data set [1], 3.89 ± 0.19 kcal/mol in data set [2] and 3.75 ± 0.19 kcal/mol in data set [3].
Regarding “SMYRIRLPSNKVFTIDVPPDGTVEITLPNGKKLTLKLESEEDILALAEILSKLFPDDPAEIEPIPLEYYRSA [r9_1206_TrMRF]”, the results for the “folding stability dG unfold” value in data set [1], in data set [2] and in data set [3] were 1.24 ± 0.042 kcal/mol, 1.53 ± 0.19 kcal/mol and 1.4 ± 0.092 kcal/mol, respectively.
In the case of “SMYRIRVKIKIKNPKTGKVIELPELEGMSLEEVLEIAKELKEKFPGAEVEVEIVEVEPLPPLTEEQLKKLSA [r9_421_TrROS_Hall]”, the “folding stability dG unfold” value came out at 1.91 ± 0.069 kcal/mol in data set [1], 2.33 ± 0.083 kcal/mol in data set [2] and 2.11 ± 0.073 kcal/mol in data set [3].
Turning to “SMYTADFILPDEVLKTVPLEGKSVEEALEKVKEIVKQLPPNTPLLVKISYTEVDPKTGTTRTGTITVPLKSA [r9_245_JUSTAS]”, the results for the “folding stability dG unfold” value in data set [1], in data set [2] and in data set [3] were 2.06 ± 0.065 kcal/mol, 2.39 ± 0.044 kcal/mol and 2.2 ± 0.19 kcal/mol, respectively.
For “SMYYYGKFTFTNPTGGPTIGDVYIITKSKEEAEALAKEEASKKNVKVEIEIKEIPESEYENPEKVKELLSSA [r9_864_JUSTAS]”, the results for the “folding stability dG unfold” value in data set [1], in data set [2] and in data set [3] were 0.285 ± 0.2 kcal/mol, 1.02 ± 0.19 kcal/mol and 0.788 ± 0.37 kcal/mol, respectively.
Regarding “SNIKNIKRVEIYYNPENGWMPKIKVEYPGGEREFMFPPDQAEELLNWLQQKGLPMKITDVEYHPMPPDQMSA [r9_607_TrROS]”, the entries for the “folding stability dG unfold” value in data set [1], in data set [2] and in data set [3] were 0.911 ± 0.086 kcal/mol, 1.49 ± 0.048 kcal/mol and 1.27 ± 0.18 kcal/mol, respectively.
For “SNPENIDKITFTFRWPDGNPMEIEIDPDGTVEYEYPNGWEIEITIDPDDGKLTIEMTFPNGRPQEQKIPISA [r9_99_TrROS]”, in that order: 1.86 ± 0.12 kcal/mol, 2.85 ± 0.097 kcal/mol and 2.94 ± 0.38 kcal/mol.
For “SNYINEPIYVPPSVDPEEVKKKVEERVEEIKKKLGLPPNISVSVTPVALPEGSVTYRVTVTVDGETYNSSSA [r9_776_JUSTAS]” the same measures were 0.77 ± 0.1 kcal/mol, 0.488 ± 0.17 kcal/mol and 0.683 ± 0.15 kcal/mol.
Turning to “SPAAELARRLFEELGLEAELVSVDPERRRVTFRVRHPDRAPLLLEVVYDPERPVFAIALNPETGRAVVPVSA [r9_1119_TrMRF]”, the “folding stability dG unfold” value in data set [1] is 1.8 ± 0.039 kcal/mol; in data set [2] it was 3.11 ± 0.036 kcal/mol; in data set [3], 2.73 ± 0.1 kcal/mol.
In the case of “SPDIEIEPMPNGSYMIEVPVPPDAESIEVPFPGNGRPVTIHRDPDKIHIFFNNPEQIEEIAEAIADGKPISA [r9_515_TrROS]”, the figures for the “folding stability dG unfold” value in data set [1], in data set [2] and in data set [3] were 0.0692 ± 0.047 kcal/mol, 0.2 ± 0.21 kcal/mol and 0.15 ± 0.15 kcal/mol, respectively.
With “SPESIEVQISKSSSTSPSGGSEEIYTVTVTYPATGKTLTKNFTATLNPDGTTNPNGSPEELAAKLAAELLAS [r1_77_JUSTAS]”, the “folding stability dG unfold” value worked out at 1.37 ± 0.079 kcal/mol in data set [1], 2.23 ± 0.026 kcal/mol in data set [2] and 2 ± 0.1 kcal/mol in data set [3].
“SPKIHIFIKGSIEEAVDFIRKFFPGLPIHVFDDPEQAEERAKNGDIVIAIGDEEYANRYAKKYNVPVIYISA [r9_380_TrROS]”: the “folding stability dG unfold” value in data set [1] was determined as 2.52 ± 0.062 kcal/mol; in data set [2] it was 3.338 ± 0.018 kcal/mol; in data set [3] it was 3.12 ± 0.053 kcal/mol.
As to “SPKITIDVETNKNGRGYIRFKFNGREREIRIPSNMTPEGAKEKARDIANTLQKRYQENGRPLKIEEIEIYSA [r9_751_TrROS]”, the entries for the “folding stability dG unfold” value in data set [1], in data set [2] and in data set [3] were 1.49 ± 0.089 kcal/mol, 1.47 ± 0.13 kcal/mol and 1.36 ± 0.17 kcal/mol, respectively.
As to “SPNWKIVEITEMERTDGRVTIKIKIKVPDGRIYIFMPNGKIIEEVPLGDDVELTITFPPNNWPIYIFVLDSA [r9_917_TrROS]”, the entries for the “folding stability dG unfold” value in data set [1], in data set [2] and in data set [3] were 3.47 ± 0.093 kcal/mol, 4.69 ± 0.19 kcal/mol and 4.48 ± 0.18 kcal/mol, respectively.
As to “SPPETETYPIPNPEDGKPLMDITIERNPENGNWKVEIYWPGGKKKEVEFPPNETIPIDDLPPGFWVTITRSA [r9_1150_TrROS]”, the entries for the “folding stability dG unfold” value in data set [1], in data set [2] and in data set [3] were 0.532 ± 0.12 kcal/mol, 1.56 ± 0.069 kcal/mol and 1.21 ± 0.16 kcal/mol, respectively.
For “SPPGWKVIPITLKFRAPIKSVEEAKSQVREIAREIANRHGFPIQVNVTVEYDPEDGWVKVEVPISIWVPKSA [r9_741_TrROS]” the same measures were 2.75 ± 0.081 kcal/mol, 3.234 ± 0.022 kcal/mol and 2.97 ± 0.09 kcal/mol.
Consider “SPSADAKVRVEPLPGPGYLATLEDGSLVLVHPDGTVIEVTETKVRIRVFTPDKPLLELEIEIPPPAPDEPSA [r9_901_TrMRF]”, for which the “folding stability dG unfold” value in data set [1] worked out at 0.803 ± 0.095 kcal/mol; in data set [2], 1.26 ± 0.066 kcal/mol; in data set [3], 1.18 ± 0.16 kcal/mol.
For “SPVTVTITLPNGETITLTFPAGMTAEELKAAVLAELKRLLPPGAKIEVVDIEVTEVVAPGETVTVTVRLTSA [r9_178_TrROS_Hall]”, the figures for the “folding stability dG unfold” value in data set [1], in data set [2] and in data set [3] were 3.36 ± 0.13 kcal/mol, 4.61 ± 0.15 kcal/mol and 4.16 ± 0.11 kcal/mol, respectively.
Turning to “SPYFMFPIDDIKVEKERDPDDGKKTYEMRVEGPNGNPFRIEFNPKDGMIHIEFPPGMKLRPGDTFELTIRSA [r9_509_TrROS]”, the “folding stability dG unfold” value in data set [1] came out at 2.09 ± 0.088 kcal/mol; in data set [2], 1.59 ± 0.2 kcal/mol; in data set [3] it was 1.85 ± 0.21 kcal/mol.
For “SQTIRLELKNPDGRKIRIEIPVQRNPGNGYYYVSVKIEYYDPNGKPKERPITAPFNSPEDAEDQAREALRSA [r9_337_TrROS]”, the “folding stability dG unfold” value in data set [1] was found to be 1.63 ± 0.12 kcal/mol; in data set [2], 2.06 ± 0.16 kcal/mol; in data set [3] it was 1.69 ± 0.28 kcal/mol.
On to “SRIKITVKPKPDGNFYIKIWFPNNGKPFIFPIKNPDAMDEARDDPGQTIEVPEDYLRSLFPDNFTDVEIVSA [r9_390_TrROS]”, for which the “folding stability dG unfold” value in data set [1] is 1.31 ± 0.015 kcal/mol; in data set [2], 1.16 ± 0.12 kcal/mol; in data set [3], 1.25 ± 0.064 kcal/mol.
With “SSATVTFTVELPDDSVIVSVRIDAEEYDPGPPWVRVTIEVEIYDKNGELLATLRFEFLLPREVLEELRKSSA [r9_234_TrMRF]”, the figures for the “folding stability dG unfold” value in data set [1], in data set [2] and in data set [3] were 4.23 ± 0.14 kcal/mol, 5.74 ± 0.3 kcal/mol and 5.77 ± 0.66 kcal/mol, respectively.
For “SSDIKIEIDIERNDDGYLTFTIEIRHPDPQQLVDAAKEIILELFPPGVNIDVEPHPDGWVKAPIMFPLPKSA [r9_646_TrROS]”, the entries for the “folding stability dG unfold” value in data set [1], in data set [2] and in data set [3] were 0.735 ± 0.13 kcal/mol, 1.63 ± 0.086 kcal/mol and 1.35 ± 0.25 kcal/mol, respectively.
As for “SSEKEVEVTIKIPLYYERPDGTIEEYDIEIKVKVKIDNGGFIAENLEEAIREVLEKLNIPEGHPDAPYFNKS [r1_175_TrMRF]”, the “folding stability dG unfold” value stood at 1.72 ± 0.19 kcal/mol in data set [1], 0.155 ± 0.48 kcal/mol in data set [2] and 1.02 ± 0.33 kcal/mol in data set [3].
For “SSITETKEFLLESEEEVEAIAEELKKPGVEVEVEVKEVERVDKKTGKKKKALKATITVKIPLPPPEKGKLSA [r9_962_JUSTAS]”, in that order: 0.79 ± 0.054 kcal/mol, 0.742 ± 0.069 kcal/mol and 0.794 ± 0.15 kcal/mol.
As for “SSLGPGELEVTELETTEEELPDGTTLKRTLSREIVPDPAGAGRVVLTETLSTVPPDGSETVTTLSVTVLASA [r9_838_JUSTAS]”, the “folding stability dG unfold” value in data set [1] was -0.078 ± 0.13 kcal/mol; in data set [2], -0.0934 ± 0.17 kcal/mol; in data set [3], -0.138 ± 0.16 kcal/mol.
“SSMPLEEIVERVAEELGIPEEELERIESVDPGVVDPSPEGPTRVELRITLRDPHSDTTTEYRVEVEDPGGSA [r9_230_JUSTAS]”: the “folding stability dG unfold” value was -0.784 ± 0.3 kcal/mol in data set [1], -0.503 ± 0.46 kcal/mol in data set [2] and -0.501 ± 0.29 kcal/mol in data set [3].
For “SSMSIEIKEVEEDPVGSEAKPRVVREKVTLEGTEVELTVTVTEAPSGETTVTTTLTFPGSGKTFSFTFDTSA [r9_241_JUSTAS]”, the “folding stability dG unfold” value in data set [1] was 1.9 ± 0.052 kcal/mol; in data set [2], 3.05 ± 0.044 kcal/mol; in data set [3], 2.62 ± 0.058 kcal/mol.
Turning to “SSMSMKTITIDATFTSEEEAKKYAEEIKKKIPPENIKNISISSTPELVTGDGTYKGEKIKVTITIEIVKKSA [r9_605_JUSTAS]”, the entries for the “folding stability dG unfold” value in data set [1], in data set [2] and in data set [3] were 1.64 ± 0.17 kcal/mol, 1.74 ± 0.2 kcal/mol and 1.71 ± 0.26 kcal/mol, respectively.
With “SSPALDEKYTAKVDAKVTSPEGKPLATFTIDVLTEEEAKKKIEEFVKELAEKLGRPDLPVTISNITIERVSA [r9_376_JUSTAS]”, the “folding stability dG unfold” value worked out at 0.519 ± 0.077 kcal/mol in data set [1], 0.921 ± 0.16 kcal/mol in data set [2] and 0.679 ± 0.25 kcal/mol in data set [3].
“SSPANITTTTTSSPLNLETFDPKTGKKKRINYTLTTETVTFPGGEVVTTTVLKDASTGKVTTLSTTVTPTSA [r9_402_JUSTAS]”: the “folding stability dG unfold” value was determined as 0.773 ± 0.081 kcal/mol in data set [1], 1.22 ± 0.14 kcal/mol in data set [2] and 1.08 ± 0.12 kcal/mol in data set [3].
For “SSPEEMAEKLAKELNFDKIEIKTEKLDLPSGPSEATVATAKLYNPATGKEYVVKILKFPDGSYEIVIEKKSA [r9_724_JUSTAS]”, in that order: 1.44 ± 0.042 kcal/mol, 2.627 ± 0.015 kcal/mol and 2.28 ± 0.07 kcal/mol.
For “SSPLINILTVEVTAETPSGGSFSKTFTFPASKYTEEEIREKIKEEYPDLTDIKITPKVTKIPPGPKILLASA [r9_841_JUSTAS]” the same measures were 1.29 ± 0.07 kcal/mol, 1.98 ± 0.18 kcal/mol and 1.76 ± 0.18 kcal/mol.
As to “SSSLDYVFKDIDPSSPNKLTLSEIKPVPESDKVVNKIVFPTKTILVTFDSAEDAEAHIGLLLKLFGSPPESA [r9_258_TrMRF]”, the “folding stability dG unfold” value amounted to 0.66 ± 0.044 kcal/mol in data set [1], 0.924 ± 0.12 kcal/mol in data set [2] and 0.852 ± 0.1 kcal/mol in data set [3].
